Experimental data published in patent US20150056223A1, “PHARMACEUTICAL COMPOSITION FOR THE PREVENTION OR TREATMENT OF NON-ALCOHOLIC FATTY LIVER DISEASE” (HANMI SCIENCE CO., LTD, priority 2012, published 2015).

Molecular target: GLP-1 receptor of RIN-m5F rat insulinoma cells (rat) (UniProt P32301)

Row | Substance | In-vitro titer (%) (EC50 of cAMP in RIN-m5F cells, compared)
1 | Exendin-4(Lys27)-PEG-Fc | 6.3
2 | Exendin-4(N)-PEG-Fc | < 0.2
